{
  "source": "patent US20090068182A1",
  "about": "(ARIUS RESEARCH, published 2009)",
  "binders": {"B1": {"name": "AR40A746.2.3 monoclonal antibody (hybridoma IDAC 141204-01) (antibody, V domains shown)", "VH": "DVQLQESGPGLVKPSQSLSLTCTVTGYSITSDYAWNWIRQFPGNKLEWMGYISYSGFTNYNPSLKSRISITRDTSKNQFFLQLSSVTTEDTATYFCEGGNYRYSWFPYWGQGTLVTVSA", "VL": "DIQMTQTTSSLSASLGDRVTISCSASQGISNYLNWYQQKPDGNVKLLIYYTSSLHSGVPSRFSGSGSGTDYSLTISNLEPEDIATYYCQQYSKLPYTFGGGTKLEIKR", "notes": "also called IDAC 141204-01 antibody; mAR40A746.2.3"}},
  "key": {"[1]": {"target": "T1, human CD9 (human, UniProt P21926 2-228)", "T1 construct": "whole, on cells; Endogenous CD9; It stood on human cell lines (FACS, cell ELISA) and in tissue sections (IHC); For immunoprecipitation and Western blot it was solubilised from BxPC-3 cell lysate (band of about 25 kDa); also called AR40A746.2.3 antigen; IDAC 141204-01 antigen", "T1 sequence (looked up)": "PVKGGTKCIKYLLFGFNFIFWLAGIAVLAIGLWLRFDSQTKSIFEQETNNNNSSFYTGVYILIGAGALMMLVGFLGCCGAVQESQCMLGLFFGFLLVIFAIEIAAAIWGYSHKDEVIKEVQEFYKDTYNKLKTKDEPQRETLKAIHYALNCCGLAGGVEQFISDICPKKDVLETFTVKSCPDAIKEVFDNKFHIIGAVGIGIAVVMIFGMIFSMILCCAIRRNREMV", "assay": "flow cytometry on prostate cancer PC-3 cells, antibody at 20 micrograms/mL", "protocol": "(§1) All cell lines were obtained from the American Type Tissue Collection (ATCC, Manassas, Va.) except for the melanoma cell lines WM9, WM35, WM164, WM451, WM537, WM852, WM983, WM1205 and WM1232 which were obtained from Dr. David Hogg (University of Toronto, Toronto, Canada).\n(§2) Cells were prepared for FACS by initially washing the cell monolayer with DPBS (without Ca⁺⁺ and Mg⁺⁺). Cell dissociation buffer (Invitrogen, Burlington, ON) was then used to dislodge the cells from their cell culture plates at 37° C. After centrifugation and collection, the cells were resuspended in DPBS containing MgCl₂ CaCl₂ and 2 percent fetal bovine serum at 4° C. (staining media) and counted, aliquoted to appropriate cell density, spun down to pellet the cells and resuspended in staining media at 4° C. in the presence of the test antibody (AR40A746.2.3) or control antibodies (isotype control, anti-EGFR). Isotype control and the test antibody were assessed at 20 micrograms/mL whereas anti-EGFR was assessed at 5 micrograms/mL on ice for 30 minutes. Prior to the addition of Alexa Fluor 546-conjugated secondary antibody the cells were washed once with staining media. […] Flow cytometric acquisition of the cells was assessed by running samples on a FACSarray™ using the FACSarray™ System Software (BD Biosciences, Oakville, ON). […]"}, "[2]": {"target": "T1, human CD9", "assay": "flow cytometry on melanoma WM537 cells, antibody at 20 micrograms/mL", "protocol": "as §1, §2"}, "[3]": {"target": "T1, human CD9", "assay": "flow cytometry on non-cancer skin CCD-27sk cells, antibody at 20 micrograms/mL", "protocol": "as §1, §2"}, "[4]": {"target": "T1, human CD9", "assay": "flow cytometry on colon cancer DLD-1 cells, antibody at 20 micrograms/mL", "protocol": "as §1, §2"}, "[5]": {"target": "T1, human CD9", "assay": "flow cytometry on colon cancer SW1116 cells, antibody at 20 micrograms/mL", "protocol": "as §1, §2"}, "[6]": {"target": "T1, human CD9", "assay": "flow cytometry on melanoma WM852 cells, antibody at 20 micrograms/mL", "protocol": "as §1, §2"}, "[7]": {"target": "T2, AR40A746.2.3 antigen (CD9) in rhesus monkey normal tissues (rhesus monkey, UniProt I0FWF4 2-228)", "T2 construct": "whole, on cells; also called rhesus monkey CD9", "T2 sequence": "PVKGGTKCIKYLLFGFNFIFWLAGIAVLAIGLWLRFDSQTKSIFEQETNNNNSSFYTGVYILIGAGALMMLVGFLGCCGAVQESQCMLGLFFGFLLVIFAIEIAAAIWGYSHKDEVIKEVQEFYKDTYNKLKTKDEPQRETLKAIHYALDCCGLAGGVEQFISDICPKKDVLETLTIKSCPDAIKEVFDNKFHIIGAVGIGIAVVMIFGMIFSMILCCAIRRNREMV", "assay": "IHC on normal tissue micro arrays, 5 micrograms/mL", "protocol": "(§3) IHC studies were conducted to evaluate the cross reactivity of AR40A746.2.3 to non human species tissues in order to find suitable preclinical toxicology model(s). All tissues used were formalin fixed paraffin embedded. The binding of AR40A746.2.3 to 8 normal tissues of cynomolgus and rhesus monkey (Biochain, CA, USA) and 10 normal tissues of rabbit, rat, mouse and sheep (Zymed laboratories Inc, CA, USA) was performed using tissue micro arrays. Previous experiments were conducted to optimize the IHC binding conditions of the antibody. Tissue sections were deparaffinized by drying in an oven at 58° C. for 1 hour and dewaxed by immersing in xylene 5 times for 4 minutes each in Coplin jars. Following treatment through a series of graded ethanol washes (100 to 75 percent) the sections were re-hydrated in water. The slides were immersed in 10 mM citrate buffer at pH 6 (Dako, Toronto, Ontario) then microwaved at high, medium, and low power settings for 5 minutes each and finally immersed in cold PBS. […] Immunoreactivity of the primary antibodies was detected/visualized with HRP conjugated secondary antibodies as supplied (Dako Envision System, Toronto, Ontario) for 30 minutes at room temperature. […]"}, "[8]": {"target": "T1, human CD9", "assay": "flow cytometry on melanoma WM451 cells, antibody at 20 micrograms/mL", "protocol": "as §1, §2"}, "[9]": {"target": "T1, human CD9", "assay": "flow cytometry on melanoma A2058 cells, antibody at 20 micrograms/mL", "protocol": "as §1, §2"}, "[10]": {"target": "T1, human CD9", "assay": "flow cytometry on breast cancer MDA-MB-231 cells, antibody at 20 micrograms/mL", "protocol": "as §1, §2"}, "[11]": {"target": "T1, human CD9", "assay": "flow cytometry on breast cancer MCF-7 cells, antibody at 20 micrograms/mL", "protocol": "as §1, §2"}, "[12]": {"target": "T1, human CD9", "assay": "flow cytometry on colon cancer HT-29 cells, antibody at 20 micrograms/mL", "protocol": "(§4) David Hogg (University of Toronto, Toronto, Canada).\n(§5) Cells were prepared for FACS by initially washing the cell monolayer with DPBS (without Ca⁺⁺ and Mg⁺⁺). Cell dissociation buffer (Invitrogen, Burlington, ON) was then used to dislodge the cells from their cell culture plates at 37° C. After centrifugation and collection, the cells were resuspended in DPBS containing MgCl₂ CaCl₂ and 2 percent fetal bovine serum at 4° C. (staining media) and counted, aliquoted to appropriate cell density, spun down to pellet the cells and resuspended in staining media at 4° C. in the presence of the test antibody (AR40A746.2.3) or control antibodies (isotype control, anti-EGFR). Isotype control and the test antibody were assessed at 20 micrograms/mL whereas anti-EGFR was assessed at 5 micrograms/mL on ice for 30 minutes. Prior to the addition of Alexa Fluor 546-conjugated secondary antibody the cells were washed once with staining media. The Alexa Fluor 546-conjugated antibody in staining media was then added for 30 minutes at 4° C. The cells were then washed for the final time and resuspended in fixing media (staining media containing 1.5 percent paraformaldehyde). Flow cytometric acquisition of the cells was assessed by running samples on a FACSarray™ using the FACSarray™ System Software (BD Biosciences, Oakville, ON). […]\n(§6) FIG. 2 presents the mean fluorescence intensity fold increase above isotype control. […]"}, "[13]": {"target": "T3, AR40A746.2.3 antigen (CD9) in mouse normal tissues (mouse, UniProt P40240 1-226)", "T3 construct": "whole, on cells; also called mouse CD9", "T3 sequence (looked up)": "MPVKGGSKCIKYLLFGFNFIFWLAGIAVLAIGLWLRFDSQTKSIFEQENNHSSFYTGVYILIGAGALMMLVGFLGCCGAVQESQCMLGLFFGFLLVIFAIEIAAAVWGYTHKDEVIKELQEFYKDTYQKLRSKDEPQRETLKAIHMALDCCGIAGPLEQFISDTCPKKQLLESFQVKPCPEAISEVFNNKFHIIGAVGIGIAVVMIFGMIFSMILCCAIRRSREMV", "assay": "IHC on formalin fixed paraffin embedded normal tissue micro array", "protocol": "as §3"}, "[14]": {"target": "T4, AR40A746.2.3 antigen (CD9) in rat normal tissues (rat, UniProt P40241 1-226)", "T4 construct": "whole, on cells; also called rat CD9", "T4 sequence (looked up)": "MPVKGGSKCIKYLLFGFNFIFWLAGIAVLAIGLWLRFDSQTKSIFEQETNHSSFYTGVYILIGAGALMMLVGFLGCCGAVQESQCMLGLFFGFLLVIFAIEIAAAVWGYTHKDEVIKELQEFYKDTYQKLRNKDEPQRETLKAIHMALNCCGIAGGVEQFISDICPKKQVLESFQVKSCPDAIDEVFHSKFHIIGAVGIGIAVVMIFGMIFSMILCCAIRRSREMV", "assay": "IHC on formalin fixed paraffin embedded normal tissue micro array", "protocol": "as §3"}, "[15]": {"target": "T1, human CD9", "assay": "flow cytometry on colon cancer Lovo cells, antibody at 20 micrograms/mL", "protocol": "as §4, §5, §6"}, "[16]": {"target": "T1, human CD9", "assay": "flow cytometry on melanoma WM983 cells, antibody at 20 micrograms/mL", "protocol": "as §1, §2"}, "[17]": {"target": "T1, human CD9", "assay": "flow cytometry on non-cancer lung Hs888.Lu cells, antibody at 20 micrograms/mL", "protocol": "as §1, §2"}, "[18]": {"target": "T1, human CD9", "assay": "flow cytometry on melanoma WM35 cells, antibody at 20 micrograms/mL", "protocol": "as §1, §2"}, "[19]": {"target": "T1, human CD9", "assay": "flow cytometry on prostate cancer DU-145 cells, antibody at 20 micrograms/mL", "protocol": "as §4, §5, §6"}, "[20]": {"target": "T1, human CD9", "assay": "flow cytometry on melanoma WM164 cells, antibody at 20 micrograms/mL", "protocol": "as §1, §2"}, "[21]": {"target": "T1, human CD9", "assay": "flow cytometry on ovarian cancer OVCAR-3 cells, antibody at 20 micrograms/mL", "protocol": "as §4, §5, §6"}, "[22]": {"target": "T1, human CD9", "assay": "flow cytometry on melanoma A375 cells, antibody at 20 micrograms/mL", "protocol": "as §1, §2"}, "[23]": {"target": "T1, human CD9", "assay": "flow cytometry on pancreatic cancer BxPC-3 cells, antibody at 20 micrograms/mL", "protocol": "as §1, §2"}, "[24]": {"target": "T1, human CD9", "assay": "flow cytometry on melanoma WM9 cells, antibody at 20 micrograms/mL", "protocol": "as §1, §2"}, "[25]": {"target": "T1, human CD9", "assay": "flow cytometry on melanoma WM1232 cells, antibody at 20 micrograms/mL", "protocol": "as §1, §2"}},
  "data": [
    {"binder": "B1", "values": [
      {"measurement": "mean fluorescence intensity fold increase above isotype control", "setting": "[1]", "result": 37.8, "unit": "fold"},
      {"measurement": "mean fluorescence intensity fold increase above isotype control", "setting": "[2]", "result": 2.6, "unit": "fold"},
      {"measurement": "mean fluorescence intensity fold increase above isotype control", "setting": "[3]", "result": 8.7, "unit": "fold"},
      {"measurement": "mean fluorescence intensity fold increase above isotype control", "setting": "[4]", "result": 50.5, "unit": "fold"},
      {"measurement": "mean fluorescence intensity fold increase above isotype control", "setting": "[5]", "result": 13.3, "unit": "fold"},
      {"measurement": "mean fluorescence intensity fold increase above isotype control", "setting": "[6]", "result": 4.2, "unit": "fold"},
      {"measurement": "binding result", "setting": "[7]", "result": "binds"},
      {"measurement": "mean fluorescence intensity fold increase above isotype control", "setting": "[8]", "result": 7, "unit": "fold"},
      {"measurement": "mean fluorescence intensity fold increase above isotype control", "setting": "[9]", "result": 2.7, "unit": "fold"},
      {"measurement": "mean fluorescence intensity fold increase above isotype control", "setting": "[10]", "result": 19.8, "unit": "fold"},
      {"measurement": "mean fluorescence intensity fold increase above isotype control", "setting": "[11]", "result": 107, "unit": "fold"},
      {"measurement": "mean fluorescence intensity fold increase above isotype control", "setting": "[12]", "result": 80.5, "unit": "fold"},
      {"measurement": "binding result", "setting": "[13]", "result": "no binding (tested: 5 micrograms/mL)"},
      {"measurement": "binding result", "setting": "[14]", "result": "no binding (tested: 5 micrograms/mL)"},
      {"measurement": "mean fluorescence intensity fold increase above isotype control", "setting": "[15]", "result": 31.6, "unit": "fold"},
      {"measurement": "mean fluorescence intensity fold increase above isotype control", "setting": "[16]", "result": 3.9, "unit": "fold"},
      {"measurement": "mean fluorescence intensity fold increase above isotype control", "setting": "[17]", "result": 20.5, "unit": "fold"},
      {"measurement": "mean fluorescence intensity fold increase above isotype control", "setting": "[18]", "result": 13.8, "unit": "fold"},
      {"measurement": "mean fluorescence intensity fold increase above isotype control", "setting": "[19]", "result": 30.4, "unit": "fold"},
      {"measurement": "mean fluorescence intensity fold increase above isotype control", "setting": "[20]", "result": 3.3, "unit": "fold"},
      {"measurement": "mean fluorescence intensity fold increase above isotype control", "setting": "[21]", "result": 64.9, "unit": "fold"},
      {"measurement": "mean fluorescence intensity fold increase above isotype control", "setting": "[22]", "result": 4.7, "unit": "fold"},
      {"measurement": "mean fluorescence intensity fold increase above isotype control", "setting": "[23]", "result": 18.4, "unit": "fold"},
      {"measurement": "mean fluorescence intensity fold increase above isotype control", "setting": "[24]", "result": 4.8, "unit": "fold"},
      {"measurement": "mean fluorescence intensity fold increase above isotype control", "setting": "[25]", "result": 3.4, "unit": "fold"}
    ]}
  ]
}
